According to patent publication US20150374394A1, “SONOLYSIS WITH BIODEGRADABLE NANOPARTICLES” (THE BOARD OF TRUSTEES OF THE UNIVERSITY OF ARKANSAS, priority 2012, published 2015):

System: clots formed from pooled rabbit plasma with rabbit blood cells
Test: In vitro sonothrombolysis (STBL) of clots with MBs, CPDL, tPA and/or 450 nm StNPs, pulsed 1 MHz ultrasound
Conditions: pulsed 1 MHz ultrasound 15 min, in bovine calf serum, 0.5 mL/min; control ultrasound alone; 3 μm MBs, 0.1 mg/ml tPA, 0.06% w/V CPDL nanoemulsion
Protocol: FIG. 1 depicts a graph showing the potentiation of sonothrombolysis (STBL) efficacy by microbubbles (MBs) and/or a nanoemulsion of cyclopentadecanolide with or without tissue plasminogen activator (tPA). […] STBL was performed with fibrin-rich clots (see Example 2) using pulsed, 1 MHz ultrasound for 15 min. The MBs, tPA, StNPs etc. were suspended in bovine calf serum and introduced at a flow rate of 0.5 mL/min. STBL efficacy is reported as % clot lysis. Abbreviations: US=ultrasound; MBs=microbubbles; CPDL=cyclopentadecanolide; StNPs=starch nanoparticles; tPA=tissue plasminogen activator.
The clots used in these experiments were formed by mixing pooled rabbit plasma with rabbit blood cells (final volume equal to 2 mL; the volume of whole rabbit blood from which the cells were obtained), incubating this mixture for 24 h at 37° C. and then curing the formed clots for 24 h at 5° C. […] The StNPs were diluted to have an Optical Density reading at 530 nm (OD530) of 1.0. […] STBL efficacy was measured as the percent of the initial clot mass that was lost from the clot during the 15 min treatment time.

B1: tissue plasminogen activator (protein, UniProt P00750 36-562, looked up)
Tissue-type plasminogen …: SYQVICRDEKTQMIYQQHQSWLRPVLRSNRVEYCWCNSGRAQCHSVPVKSCSEPRCFNGGTCQQALYFSDFVCQCPEGFAGKCCEIDTRATCYEDQGISYRGTWSTAESGAECTNWNSSALAQKPYSGRRPDAIRLGLGNHNYCRNPDRDSKPWCYVFKAGKYSSEFCSTPACSEGNSDCYFGNGSAYRGTHSLTESGASCLPWNSMILIGKVYTAQNPSAQALGLGKHNYCRNPDGDAKPWCHVLKNRRLTWEYCDVPSCSTCGLRQYSQPQFRIKGGLFADIASHPWQAAIFAKHRRSPGERFLCGGILISSCWILSAAHCFQERFPPHHLTVILGRTYRVVPGEEEQKFEVEKYIVHKEFDDDTYDNDIALLQLKSDSSRCAQESSVVRTVCLPPADLQLPDWTECELSGYGKHEALSPFYSERLKEAHVRLYPSSRCTSQHLLNRTVTDNMLCAGDTRSGGPQANLHDACQGDSGGPLVCLNDGRMTLVGIISWGLGCGQKDVPGVYTKVTNYLDWIRDNMRP
notes: thrombolytic agent, used at 0.1 mg/ml
For B1, the “STBL efficacy (FIG. 1), in words” value was “improved STBL efficacy”.
